Measured values reported in patent CN111748039A.

Biological target: 重组CEA蛋白 (UniProt P06731)
Chain of UniProt P06731 (P06731 35-685 limits assumed): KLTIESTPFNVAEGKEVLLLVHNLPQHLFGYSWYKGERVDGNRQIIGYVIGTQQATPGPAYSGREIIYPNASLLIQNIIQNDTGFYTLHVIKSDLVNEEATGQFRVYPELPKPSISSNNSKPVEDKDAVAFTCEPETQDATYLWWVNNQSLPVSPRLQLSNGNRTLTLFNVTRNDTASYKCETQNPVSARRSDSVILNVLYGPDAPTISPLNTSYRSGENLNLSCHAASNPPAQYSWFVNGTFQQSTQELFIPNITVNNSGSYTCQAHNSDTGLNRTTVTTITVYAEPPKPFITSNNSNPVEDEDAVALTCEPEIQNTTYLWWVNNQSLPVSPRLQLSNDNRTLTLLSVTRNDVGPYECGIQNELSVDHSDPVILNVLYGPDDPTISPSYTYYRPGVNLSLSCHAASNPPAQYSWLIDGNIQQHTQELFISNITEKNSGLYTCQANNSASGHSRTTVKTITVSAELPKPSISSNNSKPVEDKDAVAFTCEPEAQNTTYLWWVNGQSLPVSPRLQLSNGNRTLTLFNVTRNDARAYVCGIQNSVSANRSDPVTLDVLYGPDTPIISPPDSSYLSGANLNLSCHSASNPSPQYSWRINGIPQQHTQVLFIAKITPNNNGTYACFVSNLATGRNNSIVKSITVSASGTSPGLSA

效价 (titer): 100000
B1: 1#单抗 (antibody, mouse IgG1, kappa, V domains shown)
VH: QIQLVQSGPELKKPGETVKISCKTSGYTFTNYAMNWVKQAPGKGLKWMGWINTNTGEPTYAEEFKGRFAFSLETSATAAYLQINNLKNDDTASYFCARGWVLYAMDYWGQGTSVTVSS
VL: DIQMTQTTSSLSASLGDRVTISCRASQDISNYLNWYQQKSDGTVKLLIYYTSRLHSGVPSRFSGSGSGTDYSLTISNLDPEDVATYFCQQGDMFMFGGGTKLEIRT
